Results: patent US10562947B2, “Compositions and methods for preventing or treating diseases, conditions or processes characterized by aberrant fibroblast proliferation and extracellular matrix deposition” (MOERAE MATRIX, INC., priority 2011, dated 2020)
Where a SMILES comes first, the peptide text is derived from it.

Assays:
Assay in all cases: Kinase Profiling Assay
Format in all cases: biochemical
CaMKI(h) = CaMKI(h) (Homo sapiens, UniProt Q14012); settings: for CaMKI(h) % activity: 100 μM peptide
Chain of CaMKI(h) (Q14012 whole entry): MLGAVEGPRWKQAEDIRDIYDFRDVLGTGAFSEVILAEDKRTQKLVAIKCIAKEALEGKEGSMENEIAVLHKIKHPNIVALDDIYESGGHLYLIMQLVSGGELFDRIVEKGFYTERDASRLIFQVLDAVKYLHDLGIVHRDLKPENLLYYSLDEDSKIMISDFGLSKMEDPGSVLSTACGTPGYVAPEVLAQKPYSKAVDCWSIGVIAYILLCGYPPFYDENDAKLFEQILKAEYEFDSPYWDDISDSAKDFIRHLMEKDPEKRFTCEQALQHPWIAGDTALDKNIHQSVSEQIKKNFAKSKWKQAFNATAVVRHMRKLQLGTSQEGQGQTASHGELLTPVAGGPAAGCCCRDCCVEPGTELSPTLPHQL
Procedure, shortened: (§1)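 Duplicate activity readings per kinase; peptide inhibitors of MK2 profiled against 266 human kinases for selectivity.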

ALK(h) = ALK(h) (Homo sapiens, UniProt Q9UM73); settings: 100 μM peptide
Chain of ALK(h) (Q9UM73 19-1620): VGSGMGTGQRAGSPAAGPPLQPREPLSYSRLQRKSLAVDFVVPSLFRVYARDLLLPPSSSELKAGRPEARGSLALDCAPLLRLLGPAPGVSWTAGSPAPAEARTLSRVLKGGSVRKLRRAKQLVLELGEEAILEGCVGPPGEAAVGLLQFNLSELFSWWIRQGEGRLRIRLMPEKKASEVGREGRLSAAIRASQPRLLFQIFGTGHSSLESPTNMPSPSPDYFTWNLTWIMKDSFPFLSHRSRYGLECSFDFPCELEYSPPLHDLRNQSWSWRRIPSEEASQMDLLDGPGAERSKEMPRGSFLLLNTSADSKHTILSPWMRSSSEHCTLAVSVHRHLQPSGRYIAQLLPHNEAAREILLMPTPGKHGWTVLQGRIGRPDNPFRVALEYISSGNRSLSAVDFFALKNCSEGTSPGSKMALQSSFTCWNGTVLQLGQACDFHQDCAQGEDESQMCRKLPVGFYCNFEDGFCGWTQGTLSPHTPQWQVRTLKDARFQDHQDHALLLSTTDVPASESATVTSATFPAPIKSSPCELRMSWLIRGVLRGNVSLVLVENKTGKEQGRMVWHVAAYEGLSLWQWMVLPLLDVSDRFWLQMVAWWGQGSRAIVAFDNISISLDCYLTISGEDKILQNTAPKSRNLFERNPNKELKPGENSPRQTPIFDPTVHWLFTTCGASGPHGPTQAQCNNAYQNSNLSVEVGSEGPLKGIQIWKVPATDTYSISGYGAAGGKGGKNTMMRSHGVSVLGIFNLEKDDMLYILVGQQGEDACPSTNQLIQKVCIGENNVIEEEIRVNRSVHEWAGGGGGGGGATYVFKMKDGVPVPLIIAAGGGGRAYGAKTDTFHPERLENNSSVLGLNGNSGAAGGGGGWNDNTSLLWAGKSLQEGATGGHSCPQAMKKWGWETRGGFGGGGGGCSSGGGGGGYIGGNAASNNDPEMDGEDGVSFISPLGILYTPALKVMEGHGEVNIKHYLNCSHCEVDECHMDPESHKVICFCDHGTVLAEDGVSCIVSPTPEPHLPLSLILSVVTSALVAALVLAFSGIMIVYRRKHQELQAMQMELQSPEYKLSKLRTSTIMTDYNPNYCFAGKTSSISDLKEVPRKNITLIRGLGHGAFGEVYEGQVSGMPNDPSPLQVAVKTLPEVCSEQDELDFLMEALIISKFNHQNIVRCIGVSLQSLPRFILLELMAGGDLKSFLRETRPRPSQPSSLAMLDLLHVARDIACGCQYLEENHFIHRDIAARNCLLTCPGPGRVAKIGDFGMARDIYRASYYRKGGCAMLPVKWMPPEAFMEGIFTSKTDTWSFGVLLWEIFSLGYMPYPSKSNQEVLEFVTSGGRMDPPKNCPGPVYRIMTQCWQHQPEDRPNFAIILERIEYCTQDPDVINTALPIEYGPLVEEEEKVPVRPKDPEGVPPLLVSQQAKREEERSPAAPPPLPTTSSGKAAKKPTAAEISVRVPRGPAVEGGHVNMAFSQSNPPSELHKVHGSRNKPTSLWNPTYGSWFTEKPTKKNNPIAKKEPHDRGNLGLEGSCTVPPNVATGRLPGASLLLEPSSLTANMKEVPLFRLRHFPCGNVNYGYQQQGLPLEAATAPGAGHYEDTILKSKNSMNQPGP
Procedure, shortened: as §1

ErbB4(h) = ErbB4(h) (Homo sapiens, UniProt Q15303); settings: 100 μM peptide
Chain of ErbB4(h) (Q15303 26-1308): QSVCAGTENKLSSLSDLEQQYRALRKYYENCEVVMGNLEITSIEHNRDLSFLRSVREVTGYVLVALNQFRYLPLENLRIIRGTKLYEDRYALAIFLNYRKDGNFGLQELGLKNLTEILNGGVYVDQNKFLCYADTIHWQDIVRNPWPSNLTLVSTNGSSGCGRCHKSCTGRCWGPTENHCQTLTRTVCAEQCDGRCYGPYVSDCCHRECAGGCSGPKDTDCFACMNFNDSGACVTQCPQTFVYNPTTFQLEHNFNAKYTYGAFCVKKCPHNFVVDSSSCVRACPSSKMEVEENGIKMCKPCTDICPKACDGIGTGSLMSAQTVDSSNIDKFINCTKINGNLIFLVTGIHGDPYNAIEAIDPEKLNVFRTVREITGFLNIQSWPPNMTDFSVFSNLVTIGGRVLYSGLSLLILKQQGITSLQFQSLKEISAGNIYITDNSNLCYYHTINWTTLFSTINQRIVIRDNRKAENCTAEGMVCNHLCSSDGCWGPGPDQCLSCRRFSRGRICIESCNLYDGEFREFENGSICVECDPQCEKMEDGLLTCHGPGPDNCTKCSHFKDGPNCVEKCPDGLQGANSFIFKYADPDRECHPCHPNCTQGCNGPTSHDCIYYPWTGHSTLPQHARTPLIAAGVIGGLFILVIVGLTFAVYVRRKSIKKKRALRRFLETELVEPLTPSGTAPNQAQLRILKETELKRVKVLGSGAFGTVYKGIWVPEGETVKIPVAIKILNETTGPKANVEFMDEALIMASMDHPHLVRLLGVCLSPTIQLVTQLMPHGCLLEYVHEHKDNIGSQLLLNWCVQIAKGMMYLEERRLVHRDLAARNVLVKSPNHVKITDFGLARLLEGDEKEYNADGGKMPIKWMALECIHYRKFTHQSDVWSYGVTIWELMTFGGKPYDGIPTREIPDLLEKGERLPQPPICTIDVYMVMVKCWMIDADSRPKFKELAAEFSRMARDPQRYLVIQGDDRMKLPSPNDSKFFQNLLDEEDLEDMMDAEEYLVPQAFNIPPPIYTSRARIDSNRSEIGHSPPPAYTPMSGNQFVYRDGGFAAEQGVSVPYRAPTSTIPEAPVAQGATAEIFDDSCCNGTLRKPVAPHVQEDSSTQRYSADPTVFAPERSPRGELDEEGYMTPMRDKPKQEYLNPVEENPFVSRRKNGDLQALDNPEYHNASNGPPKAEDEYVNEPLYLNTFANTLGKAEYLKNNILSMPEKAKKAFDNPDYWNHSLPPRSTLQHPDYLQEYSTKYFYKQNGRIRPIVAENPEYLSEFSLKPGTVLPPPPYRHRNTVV
Procedure, shortened: as §1

PAK4(h) = PAK4(h) (Homo sapiens, UniProt O96013); settings: 100 μM peptide
Chain of PAK4(h) (O96013 whole entry): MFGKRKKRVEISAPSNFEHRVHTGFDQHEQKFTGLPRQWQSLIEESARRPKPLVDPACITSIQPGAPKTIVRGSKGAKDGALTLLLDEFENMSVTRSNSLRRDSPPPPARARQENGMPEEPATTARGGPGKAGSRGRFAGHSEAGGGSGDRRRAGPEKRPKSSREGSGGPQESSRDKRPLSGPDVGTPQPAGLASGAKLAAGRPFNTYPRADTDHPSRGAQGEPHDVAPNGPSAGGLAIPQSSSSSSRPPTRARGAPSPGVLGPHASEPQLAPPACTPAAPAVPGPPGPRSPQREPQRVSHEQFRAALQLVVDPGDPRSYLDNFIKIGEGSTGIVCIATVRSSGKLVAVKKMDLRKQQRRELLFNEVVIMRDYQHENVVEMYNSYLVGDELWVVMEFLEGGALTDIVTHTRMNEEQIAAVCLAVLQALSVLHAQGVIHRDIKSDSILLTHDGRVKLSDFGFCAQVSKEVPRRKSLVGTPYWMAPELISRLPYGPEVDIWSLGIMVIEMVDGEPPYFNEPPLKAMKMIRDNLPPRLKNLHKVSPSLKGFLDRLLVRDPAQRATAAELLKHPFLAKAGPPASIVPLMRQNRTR
Procedure, shortened: as §1

MST3(h) = MST3(h) (Homo sapiens, UniProt Q9Y6E0); settings: 100 μM peptide
Chain of MST3(h) (Q9Y6E0 whole entry): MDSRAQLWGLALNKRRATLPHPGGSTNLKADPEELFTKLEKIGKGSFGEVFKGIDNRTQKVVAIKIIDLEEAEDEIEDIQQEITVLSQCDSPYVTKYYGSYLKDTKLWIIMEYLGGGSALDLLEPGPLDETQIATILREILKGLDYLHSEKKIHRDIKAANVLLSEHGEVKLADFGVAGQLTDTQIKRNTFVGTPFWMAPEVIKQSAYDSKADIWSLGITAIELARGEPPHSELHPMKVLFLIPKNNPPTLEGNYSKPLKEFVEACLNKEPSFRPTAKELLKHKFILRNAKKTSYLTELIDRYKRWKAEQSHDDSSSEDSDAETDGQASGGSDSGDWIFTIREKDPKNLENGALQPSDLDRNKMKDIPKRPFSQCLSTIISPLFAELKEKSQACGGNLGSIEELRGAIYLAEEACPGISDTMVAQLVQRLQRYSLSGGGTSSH
Procedure, shortened: as §1

NEK2(h) = target: T1, NEK2(h) (Homo sapiens, UniProt P51955); settings: 100 μM peptide
T1 sequence (P51955 1-445): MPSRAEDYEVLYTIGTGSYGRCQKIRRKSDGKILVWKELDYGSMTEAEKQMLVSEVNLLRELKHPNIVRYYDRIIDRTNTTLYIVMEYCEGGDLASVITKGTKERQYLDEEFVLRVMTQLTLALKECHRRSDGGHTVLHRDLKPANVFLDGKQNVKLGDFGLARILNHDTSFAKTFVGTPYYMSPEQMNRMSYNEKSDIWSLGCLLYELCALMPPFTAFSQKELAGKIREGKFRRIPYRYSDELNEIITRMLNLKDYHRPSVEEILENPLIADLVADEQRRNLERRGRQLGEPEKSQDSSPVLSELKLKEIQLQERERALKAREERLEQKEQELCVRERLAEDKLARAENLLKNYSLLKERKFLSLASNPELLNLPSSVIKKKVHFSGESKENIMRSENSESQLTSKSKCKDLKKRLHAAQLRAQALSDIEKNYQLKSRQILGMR
Procedure, shortened: as §1

ASK1(h) = target: T2, ASK1(h) (Homo sapiens, UniProt Q99683); settings: 100 μM peptide
T2 sequence (Q99683 1-1374): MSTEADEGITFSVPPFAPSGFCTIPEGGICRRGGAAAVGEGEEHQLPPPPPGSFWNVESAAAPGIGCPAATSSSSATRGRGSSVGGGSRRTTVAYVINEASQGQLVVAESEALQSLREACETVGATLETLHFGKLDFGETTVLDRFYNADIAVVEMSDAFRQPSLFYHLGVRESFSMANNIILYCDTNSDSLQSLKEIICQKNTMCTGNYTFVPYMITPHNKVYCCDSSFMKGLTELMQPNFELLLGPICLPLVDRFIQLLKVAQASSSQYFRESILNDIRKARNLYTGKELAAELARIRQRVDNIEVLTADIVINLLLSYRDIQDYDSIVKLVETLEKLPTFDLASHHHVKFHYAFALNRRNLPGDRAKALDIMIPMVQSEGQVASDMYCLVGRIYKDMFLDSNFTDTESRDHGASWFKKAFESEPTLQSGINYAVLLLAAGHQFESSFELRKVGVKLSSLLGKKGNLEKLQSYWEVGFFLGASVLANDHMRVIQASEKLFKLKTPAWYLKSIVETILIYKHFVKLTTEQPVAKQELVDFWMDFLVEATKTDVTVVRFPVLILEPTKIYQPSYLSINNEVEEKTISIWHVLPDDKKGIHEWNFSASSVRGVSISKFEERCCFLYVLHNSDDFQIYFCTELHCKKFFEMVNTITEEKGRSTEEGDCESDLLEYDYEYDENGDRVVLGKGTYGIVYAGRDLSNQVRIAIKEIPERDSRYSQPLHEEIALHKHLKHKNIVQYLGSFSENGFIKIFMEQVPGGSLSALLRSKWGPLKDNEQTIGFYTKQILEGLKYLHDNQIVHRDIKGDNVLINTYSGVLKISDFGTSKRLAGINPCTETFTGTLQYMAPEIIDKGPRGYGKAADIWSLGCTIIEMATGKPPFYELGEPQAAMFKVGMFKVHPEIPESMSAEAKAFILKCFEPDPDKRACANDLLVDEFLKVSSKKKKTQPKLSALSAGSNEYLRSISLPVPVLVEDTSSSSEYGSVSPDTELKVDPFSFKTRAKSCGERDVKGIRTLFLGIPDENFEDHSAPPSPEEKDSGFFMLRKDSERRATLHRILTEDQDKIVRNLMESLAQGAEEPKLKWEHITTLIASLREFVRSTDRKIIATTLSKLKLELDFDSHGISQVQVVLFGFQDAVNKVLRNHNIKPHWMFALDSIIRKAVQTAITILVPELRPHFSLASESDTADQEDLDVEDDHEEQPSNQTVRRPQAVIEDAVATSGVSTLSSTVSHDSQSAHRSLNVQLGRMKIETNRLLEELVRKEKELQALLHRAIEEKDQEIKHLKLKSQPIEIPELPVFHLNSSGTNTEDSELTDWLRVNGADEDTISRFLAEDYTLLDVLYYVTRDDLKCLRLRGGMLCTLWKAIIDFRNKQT
Procedure, shortened: as §1

IKKα(h) = target: T3, IKKα(h) (Homo sapiens, UniProt O15111); settings: 100 μM peptide
T3 construct: purchased Millipore
T3 sequence (O15111 1-745): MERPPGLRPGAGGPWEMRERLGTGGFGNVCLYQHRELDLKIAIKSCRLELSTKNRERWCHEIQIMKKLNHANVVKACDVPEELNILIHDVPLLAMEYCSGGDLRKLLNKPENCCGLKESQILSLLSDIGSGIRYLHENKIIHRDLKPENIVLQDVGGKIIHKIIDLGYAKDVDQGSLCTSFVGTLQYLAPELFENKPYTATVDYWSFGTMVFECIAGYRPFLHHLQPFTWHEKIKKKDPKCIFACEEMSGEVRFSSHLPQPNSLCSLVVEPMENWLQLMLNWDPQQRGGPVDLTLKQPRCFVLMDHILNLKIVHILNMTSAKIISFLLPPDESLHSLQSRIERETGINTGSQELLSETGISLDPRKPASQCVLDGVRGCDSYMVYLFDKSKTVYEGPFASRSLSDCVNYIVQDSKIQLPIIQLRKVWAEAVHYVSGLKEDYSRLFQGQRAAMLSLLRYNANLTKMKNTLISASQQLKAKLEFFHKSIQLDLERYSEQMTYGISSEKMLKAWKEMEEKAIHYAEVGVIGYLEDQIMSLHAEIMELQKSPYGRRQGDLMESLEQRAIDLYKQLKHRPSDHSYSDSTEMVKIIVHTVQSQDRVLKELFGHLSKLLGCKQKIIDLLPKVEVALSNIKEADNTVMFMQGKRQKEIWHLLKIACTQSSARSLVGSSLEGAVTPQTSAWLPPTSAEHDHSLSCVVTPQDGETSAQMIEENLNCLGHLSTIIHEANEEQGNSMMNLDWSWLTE
Procedure, shortened: as §1

CC(C)C[C@H](NC(=O)[C@H](C)NC(=O)[C@H](CCCCN)NC(=O)[C@H](C)NC(=O)[C@H](CCCNC(=N)N)NC(=O)[C@H](C)NC(=O)[C@H](CCC(N)=O)NC(=O)[C@H](CCCNC(=N)N)NC(=O)[C@H](C)NC(=O)[C@H](C)NC(=O)[C@H](C)NC(=O)[C@H](CCCNC(=N)N)NC(=O)[C@H](C)NC(=O)[C@@H](N)Cc1ccc(O)cc1)C(=O)N[C@@H](C)C(=O)N[C@@H](CCCNC(=N)N)C(=O)N[C@@H](CCC(N)=O)C(=O)N[C@@H](CC(C)C)C(=O)NCC(=O)N[C@H](C(=O)N[C@@H](C)C(=O)N[C@@H](C)C(=O)O)C(C)C [MMI-0100] (H-YARAAARQARAKALARQLGVAA-OH; N-terminus and C-terminus assumed)
inhibition at 100 µM (CaMKI(h); read-out: inhibition of kinase activity of CaMKI): > 65%

YARAAARQARAKALNRQLGVA (Mammalian) [MMI-0200]
ALK(h) % activity (ALK(h)): 95%
CaMKI(h) % activity (CaMKI(h)): 21%
ErbB4(h) % activity (ErbB4(h)): 82%
PAK4(h) % activity (PAK4(h)): 98%
MST3(h) % activity (MST3(h)): 95%
NEK2(h) % activity (NEK2(h)): 97%
ASK1(h) % activity (ASK1(h)): 101%

HRRIKAWLKKIKALARQLGVAA (Mammalian) [MMI-0500]
ALK(h) % activity (ALK(h)): 12%
CaMKI(h) % activity (CaMKI(h)): −1%
ErbB4(h) % activity (ErbB4(h)): 2%
PAK4(h) % activity (PAK4(h)): 86%
IKKα(h) % activity (IKKα(h)): 50%
MST3(h) % activity (MST3(h)): 4%
NEK2(h) % activity (NEK2(h)): 0%
ASK1(h) % activity (ASK1(h)): −4%

KAFAKLAARLYRKALARQLGVAA [MMI-0400]
ALK(h) % activity (ALK(h)): 16%
CaMKI(h) % activity (CaMKI(h)): 0%
ErbB4(h) % activity (ErbB4(h)): 0%
PAK4(h) % activity (PAK4(h)): 89%
IKKα(h) % activity (IKKα(h)): 87%
MST3(h) % activity (MST3(h)): 36%
NEK2(h) % activity (NEK2(h)): 61%
ASK1(h) % activity (ASK1(h)): 69%

FAKLAARLYRKALARQLGVAA [MMI-0300]
ALK(h) % activity (ALK(h)): 19%
CaMKI(h) % activity (CaMKI(h)): 1%
ErbB4(h) % activity (ErbB4(h)): 40%
PAK4(h) % activity (PAK4(h)): 94%
IKKα(h) % activity (IKKα(h)): 93%
MST3(h) % activity (MST3(h)): 45%
NEK2(h) % activity (NEK2(h)): 78%
ASK1(h) % activity (ASK1(h)): 80%
